Target: T1, LDLR (Homo sapiens, UniProt P01130)
T1 construct: expressed in transfected cells; host or cells: HEK293 (ATCC CRL-1573)
Format: binding

T1 sequence (P01130 22-860): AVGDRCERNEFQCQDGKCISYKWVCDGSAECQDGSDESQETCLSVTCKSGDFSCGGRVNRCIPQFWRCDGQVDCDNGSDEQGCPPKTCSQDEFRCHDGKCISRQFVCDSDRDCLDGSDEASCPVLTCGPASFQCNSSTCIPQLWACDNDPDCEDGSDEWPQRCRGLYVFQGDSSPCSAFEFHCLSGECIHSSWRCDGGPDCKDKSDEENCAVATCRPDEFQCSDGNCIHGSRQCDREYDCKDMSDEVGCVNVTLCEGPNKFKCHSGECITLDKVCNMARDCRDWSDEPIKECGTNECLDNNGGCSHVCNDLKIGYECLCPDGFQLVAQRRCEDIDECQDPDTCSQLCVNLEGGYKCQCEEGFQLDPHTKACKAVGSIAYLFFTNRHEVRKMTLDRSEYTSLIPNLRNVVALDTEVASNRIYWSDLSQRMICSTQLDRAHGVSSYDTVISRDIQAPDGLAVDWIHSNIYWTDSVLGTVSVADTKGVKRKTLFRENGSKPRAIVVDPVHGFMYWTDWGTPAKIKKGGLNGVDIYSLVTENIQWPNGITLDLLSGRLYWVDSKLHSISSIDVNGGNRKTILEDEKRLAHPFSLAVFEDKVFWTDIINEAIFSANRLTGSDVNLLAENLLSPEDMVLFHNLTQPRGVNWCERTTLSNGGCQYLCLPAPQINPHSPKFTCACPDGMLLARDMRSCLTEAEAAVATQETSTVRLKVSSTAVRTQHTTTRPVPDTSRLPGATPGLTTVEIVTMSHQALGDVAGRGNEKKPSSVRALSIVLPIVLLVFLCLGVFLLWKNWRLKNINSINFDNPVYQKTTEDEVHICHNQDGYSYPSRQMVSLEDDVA

Question: For “BODIPY-FL-labelled LDL: BOPIDY FL complexed LDL purchased from ThermoFisher Scientific; fluorescent ligand for the BRET binding assay”, which “ligand-binding BRET signal (binding to LDLR)” value is on record?
Answer: Its value is “concentration-dependent ligand-binding BRET signal”.
